Laboratory results taken from paper PMC6036246, “SAV4189, a MarR-Family Regulator in Streptomyces avermitilis, Activates Avermectin Biosynthesis” (Frontiers in Microbiology, 2018).

Key:
[1] = target: T1, SAV4189 (His6-SAV4189) (Streptomyces avermitilis, UniProt Q82FR3); assay: EMSA, release of SAV4189 from DIG-labelled promoter probe […]p; type: binding; settings: 62.5 nM His6-SAV4189, antibiotic in water
T1 construct: gene SAVERM_4189; full-length, 171 residues (516-bp CDS), His6-tagged from pET-28a(+) (NdeI/EcoRI), E. coli BL21(DE3), Ni-NTA; tag removal not mentioned; MarR family said to be generally homodimeric
T1 sequence (Q82FR3 1-171): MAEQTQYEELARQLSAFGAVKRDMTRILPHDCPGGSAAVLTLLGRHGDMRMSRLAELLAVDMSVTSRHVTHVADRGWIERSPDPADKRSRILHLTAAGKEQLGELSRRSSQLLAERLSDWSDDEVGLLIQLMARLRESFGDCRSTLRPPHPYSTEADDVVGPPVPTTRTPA

[2] = test system: T2, His6-SAV4189 (Streptomyces avermitilis), ORF:1042fb45; assay: EMSA; settings: EMSA as in Luo et al. 2014 (buffer not given), 0.15-0.3 nM DIG probe; footprinting 400 ng probe in 25 ul, 30 min at 25 C
T2 sequence: T1 sequence (Q82FR3 1-171)

[3] = test system: T2, His6-SAV4189 (Streptomyces avermitilis), ORF:1042fb45; assay: competition; settings: EMSA as in Luo et al. 2014 (buffer not given), 0.15-0.3 nM DIG probe; footprinting 400 ng probe in 25 ul, 30 min at 25 C

Compound | EMSA, release of SAV4189 from DIG-labelled promoter probe 4189p [1] | binding [2] | binding [3]
CN[C@H]1C[C@@H](N)[C@H](O)[C@@H](O[C@@H]2O[C@H](CO)[C@H](O)[C@@H]3OC4(O[C@H]23)O[C@H]([C@@H](N)CO)[C@H](O)[C@H](O)[C@H]4O)[C@@H]1O (stereo partly drawn) [HygB, hygromycin B] | SAV4189-4189p complex was disrupted in dose-dependent manner by exogenous HygB and Thi |  | 
AATTGCTGGCCGAAGCCCGCGCGGGTGTGCAGGTCTGAAACCGCCGGGGGTGAGGTTAGGGGGGTGGGAAAACCTAGGGGTTGGTCCCCGGGGTGGCGCCGGATAGTGTCGAAACGGCTGAAACAGCATTACTGGAGCGGTTGAGAAAAGCAATCCCAGATTCTGTGCCAACGCGGGGAGAACGAGTGGAACTGGCGGATTCCGGCGACCTTTTGGAAATATTCGAGCGTACCGAGGAAATGGCGCGGCTCGCGCATGTGCTGGCGAGTGCCGGACAGGGCGAAGGCGGTGTGGTCCTCG (double strand) [olmRIIp] |  | binds | 
CATCACACCTCCCGTATTCGTTGCTTAGGGCAACCATAGGAAAGTTGGTTGCCGCAGGCAAACTAAATAGGGTCTTCAGGGATAAAAACTTGGCAAAGGCAAGTATTGGCAGGCGTAAAGCCGCAGGTGGGGAGGTCAGGAGCGGTCG (double strand) [4189p] |  | binds | binds
CGTGTTCACTTCAGAAACCTCCCTGACGAGGCCGCGACGTTGCGGCCGAGGTGGCTGGAAGTCAACTCGGCCACACGTGCGACGTCAAGAAGTAAATACTTAACGAGATGGCAACGGTGCCATGCGTTCTCTAAGTGAAGGCAGGGGTGGCCGCGGAAAGCGTGCCATCCAAAAGGGTCGAATCGCCCATCTCGCTCAACGCGAGAGCGAGCGCTCCGAGCACCTCGGCGCGGCCCCCAAGTGCCCCTGGAAGCACCGAGAGTTGAC (double strand) [xylFp] |  | no binding | 
GACGACTCATATGCGGCAGGCCCTCCCCAGGACGTCGACAGCCGAAAGGCCTTTGGTTGTCCCCACAACCAGTTGTGACGAGACGACTCTATCCAGCAATCGCCCTCCCGCATATCCACTCGTCAAAGGCAACCCTCTCGGGCCATCTGTGCAGGTCAAGTGACCGGAGGGTAGCTAAGACCGTACCGCGCGGCAGTGCCCGAGCGGTGCGGCCTTGGCAACGTTGATC (double strand) [savR1p] |  | no binding | 
GACTGCCGGAACTCCATGCGCTGTGCCCTCCGGTTCGTGGTGTTACTTGGTTTTACCAAGTCAGAGCTTGGAAAGTCCAACAACATGTCTAGACTGCGTCGCATGCCACCTCGCCGAAGCTACGACCAGTACTGTTCCGCGGCCCGAGCCCTCGACGCCGTCGGTGACCGCTGGACCCTCCTGATCGTCCG (double strand) [aspB1p] |  | binds | 
TCATGGGATCTCCGGTGCCGAAGAGGGGACGAGAGCCACTCGGATTTTCTATGGTTAGGCTTACCTAAGTCAACGGGTTCCCGACATCCCGTCGGTAAAATCGTACCCCCGATTCCGATCAAGCCCACAGGAAAAGCCCGCCCCCCGAAGGGAGCGGGCTTTCGCGCGGCGGGCGGGACTACGGCAGCGTCAGGATGTCCGCCCCGCTGTCCGT (double strand) [hmuOp] |  | binds | 
TCCGGACTTGACTGATCTCGACAGTACTTGGCGCACTTGGCCCACTTGGGATCATTGCGGCGGTTGTTACCGCCCGTAAAGCACCATAAGCGCAGCGGGCGGGAGTTCAAACCCGATCAGCTTGGATAAGGTAAGCCTTACCTGTCAACGATCGTGAAGTCGGTGGTCCCCGCATGCCCTCGCCCGTCGCGGATGCCTACGCAAGGCTGACCGA (double strand) [2073p] |  | binds | 
TGACCCCTCCCGCCACTTCCCCCGGCACTTTCCATCGCTTCTCGCCGTGAATTGCAGAGATTCCCCACACACTTATCCCGTTATTAATTCAGAACAGCTTCCCGCATTCTTCTGCCCGCTTTCTTTCGTGCTAAACGCAAAGATTTCGCGAACACCAACCGGCTTAATTCGGGCAGGTCCCGCACGGGTCGTCCACTTGTGATCGACTCCACATCGCACCCCTTTCCTCCCGTATTTTCCGGACAAAATGGGGGTTATCGACGC (double strand) [ectAp] |  | binds | 
TTGATGACCTCGACCATGTGCACCGGGATACGGATGGTGCGGGCCTGGTCGGCCATGGCGCGGGTGATCGCCTGACGGATCCACCAGGTGGCGTACGTGGAGAACTTGTAGCCCTTGG (double strand) [hrdB] |  | no binding | no binding
